{
  "source": "patent US20050095674A1",
  "about": "“Cannabinoid receptor interacting proteins and methods of use” (priority 2003, published 2005)",
  "key": {"[1]": {"biological_target": "rat CB1 cannabinoid receptor, wild type (rat) (UniProt P20272)", "experiment": "cell-based or functional assay"}, "[2]": {"biological_target": "T1, CB1 receptors (Rattus norvegicus, UniProt P20272)", "T1 construct": "expressed in transfected cells", "T1 sequence (P20272 whole entry)": "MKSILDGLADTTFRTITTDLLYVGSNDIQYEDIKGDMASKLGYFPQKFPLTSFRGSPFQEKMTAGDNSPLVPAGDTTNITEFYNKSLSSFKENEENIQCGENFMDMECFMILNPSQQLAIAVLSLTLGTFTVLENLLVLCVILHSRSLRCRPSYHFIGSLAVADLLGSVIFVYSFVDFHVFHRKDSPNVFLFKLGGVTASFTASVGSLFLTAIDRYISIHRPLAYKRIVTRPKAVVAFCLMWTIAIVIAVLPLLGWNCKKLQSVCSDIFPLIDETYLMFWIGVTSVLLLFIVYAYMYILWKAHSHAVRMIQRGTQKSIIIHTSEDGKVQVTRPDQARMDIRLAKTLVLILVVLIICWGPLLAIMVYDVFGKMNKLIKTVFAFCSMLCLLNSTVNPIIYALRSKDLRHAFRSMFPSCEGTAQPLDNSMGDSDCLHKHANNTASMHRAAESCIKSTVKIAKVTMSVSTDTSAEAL", "experiment": "Whole-cell patch clamp of Ca2+ currents in SCG neurons microinjected with rCB1 and rat CRIP1a", "type": "cell-based"}, "[3]": {"biological_target": "T2, CB1-464 truncated receptor (Rattus norvegicus, UniProt P20272)", "T2 construct": "expressed in transfected cells", "T2 sequence (P20272 1-464 limits assumed)": "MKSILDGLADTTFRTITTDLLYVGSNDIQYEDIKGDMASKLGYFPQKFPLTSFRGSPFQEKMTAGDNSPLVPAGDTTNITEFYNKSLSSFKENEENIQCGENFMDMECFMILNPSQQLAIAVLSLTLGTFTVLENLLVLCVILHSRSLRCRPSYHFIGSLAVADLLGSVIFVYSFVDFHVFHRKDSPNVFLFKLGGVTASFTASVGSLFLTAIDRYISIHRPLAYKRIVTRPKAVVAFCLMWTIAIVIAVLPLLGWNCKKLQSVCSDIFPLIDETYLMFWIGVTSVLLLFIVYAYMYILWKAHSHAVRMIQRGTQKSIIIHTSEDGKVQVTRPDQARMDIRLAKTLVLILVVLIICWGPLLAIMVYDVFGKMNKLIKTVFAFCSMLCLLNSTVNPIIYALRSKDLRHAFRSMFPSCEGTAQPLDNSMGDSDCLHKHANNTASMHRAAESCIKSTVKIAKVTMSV", "experiment": "Whole-cell patch clamp of Ca2+ currents in SCG neurons expressing the CB1-464 truncated receptor", "type": "cell-based", "details": "coexpression of CRIP1a with CB1-464 truncated receptor"}, "[4]": {"biological_target": "T3, C-terminal tail of CB1 (amino acids 464-473 of rat CB1) (Rattus norvegicus, UniProt P20272)", "T3 construct": "C-terminal tail of CB1 (amino acids 464-473 of rat CB1); expressed in transfected cells; host or cells: yeast (strain not restated for this experiment)", "experiment": "Yeast two-hybrid, CB1 receptor interaction site with CRIP1b", "type": "binding", "source_text": "The yeast two-hybrid technique was used to determine the CB1 receptor interaction site with CRIP1b. The C-terminus of the CB1 receptor contains separate domains critical for desensitization and internalization (Hsieh et al., 1999; Jin et al., 1999)."}, "[5]": {"biological_target": "T4, GST-CB1 (418-472) (Homo sapiens, UniProt P21554)", "T4 construct": "encoding amino acids at position 418-472 of the CB1 receptor into the pGEX-4T-1 expression vector; made in house; host or cells: bacteria; BL21(DE3) E. coli is stated for CRIP1b only", "T4 sequence (P21554 418-472)": "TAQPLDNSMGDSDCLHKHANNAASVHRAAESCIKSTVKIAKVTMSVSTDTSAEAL", "experiment": "In vitro pull-down assay (GST affinity chromatography) of bacterially expressed proteins", "type": "binding", "protocol": "To confirm the interaction between the CB1 cannabinoid receptor and the interacting protein CRIP1b, in vitro pull-down assays of bacterially expressed proteins were performed. A GST fusion peptide was created between GST and a peptide of the CB1 receptor by cloning the polynucleotide sequence encoding amino acids at position 418-472 of the CB1 receptor into the pGEX-4T-1 expression vector. This GST fusion peptide was expressed and purified using standard protocols. GST alone and purified GST/CB1 fusion peptide were coupled to a first and second Glutathione Sepharose-4B column, respectively, as per standard protocols (Smith and Johnson, 1988, Gene, 67:31-40).\nPolymerase chain reaction (PCR) was used to amplify the amino acids at positions 34-128 of CRIP1b in the pCT2 shuttle vector with EcoRI and XhoI restriction endonuclease sites. The PCR product was inserted in-frame into a pET30C expression plasmid harboring an S-tag (Novagen, Wis.). The resulting plasmid was transformed into BL21(DE3) E. coli cells, and these cells were induced to express CRIP1b by the introduction of isopropyl β-D-thiogalactopyranoside.\nThe bacteria were lysed in a buffer containing 50 mM Tris-Cl (pH 8.0), 1 mM EDTA, 100 mM NaCl, phenylmethylsulfonylfluoride (PMSF) (8 μl of 50 mM PMSF per gram of bacterial pellet). […]"}, "[6]": {"biological_target": "T5, C-terminus (amino acids 418-472) of the CB1 cannabinoid receptor (Homo sapiens, UniProt P21554)", "T5 construct": "expressed in transfected cells; host or cells: Y190 yeast cells", "T5 sequence (P21554 418-472)": "as above", "experiment": "Yeast two hybrid, domains of CRIP1b against the CB1 C-terminus", "type": "binding", "details": "CRIP1b parts tested alone and in combination", "protocol": "A human brain cDNA library (Clontech) containing 5×10^6 independent clones with an average insert size of 1.5 kb fused to the GALA activation domain was cotransformed into Y 190 yeast cells with a bait plasmid consisting of the amino acids at positions 418-472 of the human cannabinoid receptor (CB1) fused to the GALA DNA binding domain. An overnight culture of Y190 cells was diluted to an OD600 of 0.08 (20 ml/reaction) and incubated at 30° C. until an OD600 of 0.2-0.4. The cells were washed in […] of water and resuspended in […] of 100 mM LiAc, 10 mM Tris-HCl, pH 7.5, and 1 mM EDTA (LiAc/TE). Single stranded herring testis DNA (200 μg), 20 μg of bait plasmid, 20 μg of carrier plasmid, and 1.2 ml of 40% polyethyleneglycol/LiAc/TE were added to the cells, followed by incubation at 30° C. for 30 minutes at 225 rpm. […] After incubation of the plates at 30° C. for 3-5 days, β-galactosidase activity of the colonies was assessed by lifting colonies onto filters, lysing the colonies by freezing in liquid nitrogen, and exposing the filters to 20 mg/ml X-gal in phospate-containing buffer.\nTo determine which domains of CRIP1b interact with the C-terminus (amino acids 418-472) of the CB1 cannabinoid receptor, yeast two hybrid experiments were performed. […] When each exon was tested alone, no interaction was detected (FIGS. 5A, 5C, and 5E). […]"}, "[7]": {"biological_target": "T6, GST alone coupled to Glutathione Sepharose-4B (UniProt P08515 1-218 = GST)", "T6 construct": "the lane descriptions speak of glutathione Sepharose only; also called GST column; glutathione sepharose only column", "T6 sequence (P08515 whole entry)": "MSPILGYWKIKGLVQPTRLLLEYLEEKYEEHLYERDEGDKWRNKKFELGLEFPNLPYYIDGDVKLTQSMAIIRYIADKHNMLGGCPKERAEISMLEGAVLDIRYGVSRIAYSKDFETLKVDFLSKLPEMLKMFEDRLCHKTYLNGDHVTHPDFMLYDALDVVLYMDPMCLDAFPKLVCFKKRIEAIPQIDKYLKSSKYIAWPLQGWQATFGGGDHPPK", "experiment": "affinity chromatography on Glutathione Sepharose-4B, SDS-PAGE and S-tag Western blot"}, "[8]": {"biological_target": "T7, amino acids at positions 418-472 of the human cannabinoid receptor (CB1) fused to the GALA DNA binding domain (human, UniProt P04386 1-147; P21554 418-472)", "T7 construct": "Yeast two-hybrid bait in Y190 cells; also called bait plasmid", "experiment": "yeast two-hybrid, beta-galactosidase colour"}},
  "data": [
    {"molecule": "rat CRIP1a (from UniProt Q5M7A7 1-164)", "values": [
      {"measurement": "Ca^2+ current facilitation ratio", "setting": "[1]", "result": 1.26}
    ]},
    {"molecule": "CRIP1a: CB1 receptor interacting protein 1a cloned from rat brain cDNA, 164 amino acids, SEQ ID NO:7 (protein, listed as Rattus sp.) MGDLPGIVRLSIALRIQPNDGPVFFKVDGQRFGQNRTIKLLTGSSYKVEVKIKPTTLQVENISIGGVLVPLELKCKEPDGERVVYTGIYDTEGVAPTKSGERQPIQITMPFTDIGTFETVWQVKFYNYHKRDHCQWGSPFSVIEYECKPNETRSLMWVNKESFL", "values": [
      {"measurement": "Ca2+ current facilitation ratio", "setting": "[2]; SCG neurons expressing CB1 receptors co-expressed with CRIP1a, 1.46±0.08 with CB1 alone", "result": "1.26±0.03"},
      {"measurement": "effect on agonist-induced (WIN55,212-2) inhibition of the Ca2+ current", "setting": "[2]; SCG neurons expressing both CB1 and CRIP1a", "result": "had no effect on the agonist-induced inhibition of the Ca^2+ current"},
      {"measurement": "effect on SR141716-induced increase of Ca2+ current (constitutive activity of CB1)", "setting": "[2]; co-expression of CRIP1a with CB1 receptors in SCG neurons", "result": "significantly inhibited the effect of SR141716"},
      {"measurement": "effect on SR141716-induced increase of Ca2+ current", "setting": "[2]; expression of CRIP1a alone, without CB1", "result": "had no effect"},
      {"measurement": "effect on SR141716-induced increase of Ca2+ current", "setting": "[3]", "result": "did not significantly inhibit effect of SR141716"}
    ]},
    {"molecule": "CRIP1b: CB1 Receptor Interacting Protein 1b, 128 amino acid human polypeptide, SEQ ID NO:2; amino acids 34-128 used in pull-down (protein, listed as Homo sapiens) MGDLPGLVRLSIALRTQPNDGPVFYKVDGQRFGQNRTIKLLTGSSYKVEVKIKPSTLQVENISIGGVLVPLELKSKEPDGDRVVYTGTYDTEGVTPTKSGERQPIQITMPECLEQRPQEISLTYECEE", "values": [
      {"measurement": "interaction in yeast two-hybrid with the most distal 9 amino acids of the CB1 receptor", "setting": "[4]; minimal CB1 domain tested", "result": "strong interaction"},
      {"measurement": "interaction in yeast two-hybrid with the CB1 desensitization and internalization domains", "setting": "[4]; separate C-terminal domains of CB1", "result": "neither of these domains interacted strongly"},
      {"measurement": "pull-down by GST-CB1 (418-472) on glutathione-Sepharose 4B", "setting": "[5]; S-tagged CRIP1b (amino acids 34-128) bacterial lysate", "result": "pulled down"},
      {"measurement": "binding to glutathione Sepharose-4B matrix without CB1 fragment (control)", "setting": "[5]; S-tagged CRIP1b bacterial lysate", "result": "did not bind to glutathione Sepharose-4B on its own"}
    ]},
    {"molecule": "CRIP1b exon 1 and exon 2: Exon 1 (amino acids 34-60 of SEQ ID NO:2) and exon 2 (amino acids 61-110) in combination (protein, listed as Homo sapiens) QNRTIKLLTGSSYKVEVKIKPSTLQVENISIGGVLVPLELKSKEPDGDRVVYTGTYDTEGVTPTKSGERQPIQITMP", "values": [
      {"measurement": "interaction in yeast two hybrid", "setting": "[6]", "result": "positive interaction"}
    ]},
    {"molecule": "S-tagged CRIP1b (amino acids at positions 34-128) expressed from pET30C in BL21(DE3) E. coli (other, also called CB1-IP1; CRIP1b lysate; not shown: vector-encoded leader of pET30C with the S-tag) QNRTIKLLTGSSYKVEVKIKPSTLQVENISIGGVLVPLELKSKEPDGDRVVYTGTYDTEGVTPTKSGERQPIQITMPECLEQRPQEISLTYECEE", "values": [
      {"measurement": "interaction in yeast two hybrid", "setting": "[6]", "result": "enhanced"},
      {"measurement": "binding result", "setting": "[7]", "result": "no binding"}
    ]},
    {"molecule": "NISIGGVLVPLELKSKEPDGDRVVYTGTYDTEGVTPTKSGERQPIQITMP (other, not shown: large carriers, Yeast two-hybrid construct)", "note": "[CRIP1b exon 2 (amino acids 61-110 of SEQ ID NO:2)]", "values": [
      {"measurement": "binding result", "setting": "[8]", "result": "no binding"}
    ]}
  ]
}
